The values that follow come from patent US20220411492A1 (QILU PHARMACEUTICAL, published 2022).

For assay [1], the target named is T1, human Claudin 18.2 (hCLDN18.2) (human, UniProt P56856-2 1-261). In words: cell-based or functional assay.
Assay [2] deals with T1, human Claudin 18.2 (hCLDN18.2). The experiment in a line: FACS, PDX-hCLDN18.2 gastric cancer tumor tissue-derived cells. The text has this: (§1) FACS was used to detect the binding of anti-CLDN18.2 chimeric antibodies to HEK293 cells stably transfected expressing hCLDN18.2 (HEK293-hCLDN18.2) and gastric cancer tumor tissue-derived cells naturally expressing hCLDN18.2 (PDX-hCLDN18.2).

The target of assay [3] is murine CLDN18.2 (mCLDN18.2) (murine) (UniProt P56857). In words: FACS, HEK293-mCLDN18.2 cells. On the technique in general: Flow cytometry measures light scatter and fluorescence of single cells or particles in a stream.
For assay [4], the target named is T1, human Claudin 18.2 (hCLDN18.2). In words: cell-based or functional assay. This is another data set of the same source.
Assay [5] shares this target. In words: FACS, HEK293-hCLDN18.2 cells.
Source text: as §1

Assay [6] has the same target. In words: FACS, HEK293-hCLDN18.2 cells. On the procedure: Following transient expression in mammalian cell lines, affinity assays were performed using HEK293-hCLDN18.2 cells and monoclonal cell supernatants were screened by FACS.
This is another data set of the same source.

B1: ch-253C4 (antibody, V domains shown)
VH: QVQLKQSGAELVRPGASVSLSCKTSGYIFTSYWIHWVKQRSGQGLEWIGRFYPGTGTAYYNENFEGKATLTADRSSSTAYMQLSSLKSDDSAVYFCTREGYGKGNAMDYWGQGTSVTVSS
VL: DIVMTQSPSSLTVTTGEKVTLSCKSSQSLLNSGNQKNYLTWYQQKSGQPPELLIYWASTRESGVPDRFTGSGSGTDFTLTVSSVQAEDLAVYYCQNDYYFPFTFGGGTKLEIK
notes: also called chimeric antibody of clone 253C4
The term EC50 denotes the concentration giving half of the maximal effect. Read a high EC50 as lower potency in that assay. Take B1: in assay [1], the “CDC EC50” value turned out to be 0.038 µg/mL and the “CDC Maximum lysis (%)” value stood at 95.2%. Further, in assay [2], the EC50 was 9.73 nM and the “Mean maximum fluorescence intensity (Top MFI)” value is 15500 MFI. In assay [3], the EC50 was determined as 0.79 nM and the Mean maximum fluorescence intensity (Top MFI) came to 8330 MFI. Further, in assay [4], the “ADCC EC50” value is 0.036 µg/mL and the “ADCC Maximum lysis (%)” value stood at 35.7%. In assay [5], the EC50 came out at 2.27 nM and the “Mean maximum fluorescence intensity (Top MFI)” value worked out at 10300 MFI.

B2: ch-253C4-N31Q (antibody, V domains shown)
VH: QVQLKQSGAELVRPGASVSLSCKTSGYIFTSYWIHWVKQRSGQGLEWIGRFYPGTGTAYYNENFEGKATLTADRSSSTAYMQLSSLKSDDSAVYFCTREGYGKGNAMDYWGQGTSVTVSS
VL: DIVMTQSPSSLTVTTGEKVTLSCKSSQSLLQSGNQKNYLTWYQQKSGQPPELLIYWASTRESGVPDRFTGSGSGTDFTLTVSSVQAEDLAVYYCQNDYYFPFTFGGGTKLEIK
notes: also called chimeric antibody of 253C4-N31Q
Regarding B2, in assay [6], the EC50 was found to be 0.175 µg/mL and the “Mean maximum fluorescence intensity (Top MFI)” value was determined as 6560 MFI.

B3: ch-253C4-S32A (antibody, V domains shown)
VH: QVQLKQSGAELVRPGASVSLSCKTSGYIFTSYWIHWVKQRSGQGLEWIGRFYPGTGTAYYNENFEGKATLTADRSSSTAYMQLSSLKSDDSAVYFCTREGYGKGNAMDYWGQGTSVTVSS
VL: DIVMTQSPSSLTVTTGEKVTLSCKSSQSLLNAGNQKNYLTWYQQKSGQPPELLIYWASTRESGVPDRFTGSGSGTDFTLTVSSVQAEDLAVYYCQNDYYFPFTFGGGTKLEIK
notes: also called chimeric antibody of 253C4-S32A
For B3, in assay [6], a half-maximal effect (EC50) was put at 0.207 µg/mL and the “Mean maximum fluorescence intensity (Top MFI)” value was determined as 6890 MFI.

B4: ch-253C4-G33A (antibody, V domains shown)
VH: QVQLKQSGAELVRPGASVSLSCKTSGYIFTSYWIHWVKQRSGQGLEWIGRFYPGTGTAYYNENFEGKATLTADRSSSTAYMQLSSLKSDDSAVYFCTREGYGKGNAMDYWGQGTSVTVSS
VL: DIVMTQSPSSLTVTTGEKVTLSCKSSQSLLNSANQKNYLTWYQQKSGQPPELLIYWASTRESGVPDRFTGSGSGTDFTLTVSSVQAEDLAVYYCQNDYYFPFTFGGGTKLEIK
notes: also called chimeric antibody of 253C4-G33A
On to B4, for which, in assay [6], the EC50 was 0.187 µg/mL and the “Mean maximum fluorescence intensity (Top MFI)” value came out at 6840 MFI.

B5: ch-299B2 (antibody, V domains shown)
VH: QVQLKQSGPELVRPGASVKLSCKTSGYIFTNYWIHWVKQRSGQGLEWVVRIYPGTGNTYYNEKFTGKATLTADKSSSTAYMQLSSLKYEDSAVYFCSREGYGKGNSMDYWGQGTSVTVSS
VL: DIVMTQSPSSLTVTAGEKVTMNCKSSQSLLNSGNQKNYLTWYQQKPGQPPKLLFYWASTRESGVPDRFTGSGSGTDFTLTISSVQAEDLAVYHCQNAYYYPYTFGGGTKLEMK
notes: also called chimeric antibody of clone 299B2
With B5, in assay [1], the “CDC EC50” value amounted to 0.124 µg/mL and the “CDC Maximum lysis (%)” value turned out to be 95.5%. Besides, in assay [2], the EC50 came to 5.81 nM and the “Mean maximum fluorescence intensity (Top MFI)” value was 16300 MFI. In assay [3], this molecule displayed an EC50 of 0.758 nM and a Mean maximum fluorescence intensity (Top MFI) of 13600 MFI. Moreover, in assay [4], the “ADCC EC50” value worked out at 0.047 µg/mL and the “ADCC Maximum lysis (%)” value came to 33.5%. For the same molecule, in assay [5], the EC50 was determined as 1.52 nM and the “Mean maximum fluorescence intensity (Top MFI)” value stood at 10100 MFI.

B6: ch-59F9 (antibody, V domains shown)
VH: QVQLQQSGAELMKPGASVKLPCKASGYTLTGYWIEWLKQRPRHGLEWIGEILLGSGSIKYNVKFKDKATFTADTSSNTAYMQLNSLTTEDSAIYYCARKGLRGNSFDYWGQGTTLTVSS
VL: DIVMTQSPSSLTVTAGEKVTMSCKSSQSLLNSGNQKSYLTWYQQKPGQPPKRLIYWASTRESGVPDRFTGSGSGTDFTLTISSVQAEDLAVYYCQNDYYYPFTFGSGTKLEIK
notes: also called chimeric antibody of clone 59F9
With B6, in assay [1], the “CDC EC50” value was 0.091 µg/mL and the “CDC Maximum lysis (%)” value was found to be 94.7%. In addition, in assay [2], the EC50 came to 12.4 nM and the “Mean maximum fluorescence intensity (Top MFI)” value worked out at 18100 MFI. In assay [3], the EC50 was 1.22 nM and the Mean maximum fluorescence intensity (Top MFI) was found to be 11200 MFI. In assay [4], the “ADCC EC50” value was found to be 0.023 µg/mL and the “ADCC Maximum lysis (%)” value is 29.4%. Besides, in assay [5], a half-maximal response (EC50) required 2.41 nM and the “Mean maximum fluorescence intensity (Top MFI)” value was determined as 9040 MFI.

B7: ch-251H11 (antibody, V domains shown)
VH: QVQLKQSGAELVRPGASVKLSCKTSGYTFTTFWIHWIKQRSGQGLEWIAKIYPGTGYTYYNEKFKGKATLTADKSSSAAYMQLSSLKSEDSAVYFCAREGYGKGNAVDFWGQGSSVTVSS
VL: DIVMTQSPSSLTVTAGEKVTMSCKSSQSLFNSGNQKNYLTWYQQKPGQPPKLLIYWASTRESGVPDRFTGSGSGTDFTLTIDSVQAEDLAVYYCQNDYTYPSTFGGGTNLEIK
notes: also called chimeric antibody of clone 251H11
For B7, in assay [1], the “CDC EC50” value amounted to 0.359 µg/mL and the “CDC Maximum lysis (%)” value was 97.1%. In addition, in assay [2], the half-maximal effective concentration (EC50) was 96.2 nM and the “Mean maximum fluorescence intensity (Top MFI)” value turned out to be 19900 MFI. In assay [3], this molecule returned an EC50 of 1.01 nM and a Mean maximum fluorescence intensity (Top MFI) of 8590 MFI. In assay [4], the “ADCC EC50” value was found to be 0.024 µg/mL and the “ADCC Maximum lysis (%)” value was found to be 38.8%. In assay [5], a half-maximal effect (EC50) was put at 2.72 nM and the “Mean maximum fluorescence intensity (Top MFI)” value amounted to 10800 MFI.

B8: ch-287F12 (antibody, V domains shown)
VH: QIQLVQSGPELKRPGETVRISCKASGFTFTTAGMHWVQKMAGKGLKWLGWTNTHSGEPKYAEDFKGRFAFSLDTSGSDAYLQIGNLKYEDAATYFCAKWGRGNALDYWGQGTSVTVSS
VL: DIVMTQSPSSLTVTAGEKVTMTCKSSQSLLNSGNQKNYLTWYQQKPGQPPKLLIYWASTRESGVPDRFTGSGSGTDFTLTINTVQAEDLAVYYCQNTYSYPLTFGGGTKLELR
notes: also called chimeric antibody of clone 287F12
On to B8, for which, in assay [1], the “CDC EC50” value worked out at 0.141 µg/mL and the “CDC Maximum lysis (%)” value stood at 96.3%. Besides, in assay [2], the EC50 is 16.8 nM and the “Mean maximum fluorescence intensity (Top MFI)” value was 17600 MFI. Further, in assay [3], the EC50 came to 1.14 nM and the Mean maximum fluorescence intensity (Top MFI) worked out at 10200 MFI. In assay [4], the “ADCC EC50” value amounted to 0.017 µg/mL and the “ADCC Maximum lysis (%)” value came out at 35.5%. Moreover, in assay [5], it took 2.65 nM to reach a half-maximal effect (EC50) and the “Mean maximum fluorescence intensity (Top MFI)” value was determined as 10900 MFI.

B9: ch-241F7 (antibody, V domains shown)
VH: EVQLQQSGPELEKPGASVKISCKASGYSFTAYNMNWVRQRNGKSLEWIGNIDPYYGGTNYNQKFKGKATLTVDKSSSTAYMQLKSLTSEDSAVYFCATVYYGNSLIYWGQGTLVTVSA
VL: DIVMTQSPSSLTVTAGEKVTMSCKSSQSLLNSGNQKNYLTWYQQKPGQPPKLLIYWASTRESGVPDRFTGTGSGTDFTLTISSVQAEDLAVYYCQNNYFYPLTFGAGTQLELK
notes: also called chimeric antibody of clone 241F7
For B9, in assay [1], the “CDC EC50” value stood at 0.099 µg/mL and the “CDC Maximum lysis (%)” value amounted to 95%. For the same molecule, in assay [2], the response was half-maximal at 4.87 nM (EC50) and the “Mean maximum fluorescence intensity (Top MFI)” value amounted to 15200 MFI. Also, in assay [3], the EC50 came out at 1.16 nM and the Mean maximum fluorescence intensity (Top MFI) amounted to 10500 MFI. In addition, in assay [4], the “ADCC EC50” value was 0.027 µg/mL and the “ADCC Maximum lysis (%)” value turned out to be 36.6%. For the same molecule, in assay [5], a half-maximal response (EC50) required 3.02 nM and the “Mean maximum fluorescence intensity (Top MFI)” value was determined as 12200 MFI.

B10: ch-299B2-N31Q (antibody, V domains shown)
VH: QVQLKQSGPELVRPGASVKLSCKTSGYIFTNYWIHWVKQRSGQGLEWVVRIYPGTGNTYYNEKFTGKATLTADKSSSTAYMQLSSLKYEDSAVYFCSREGYGKGNSMDYWGQGTSVTVSS
VL: DIVMTQSPSSLTVTAGEKVTMNCKSSQSLLQSGNQKNYLTWYQQKPGQPPKLLFYWASTRESGVPDRFTGSGSGTDFTLTISSVQAEDLAVYHCQNAYYYPYTFGGGTKLEMK
notes: Light chain variable region mutant N31Q of 299B2; also called ch-299B2-X31Q; chimeric antibody of 299B2-N31Q
With B10, the binding result in assay [6] is given as “binds”.

B11: ch-299B2-S32A (antibody, V domains shown)
VH: QVQLKQSGPELVRPGASVKLSCKTSGYIFTNYWIHWVKQRSGQGLEWVVRIYPGTGNTYYNEKFTGKATLTADKSSSTAYMQLSSLKYEDSAVYFCSREGYGKGNSMDYWGQGTSVTVSS
VL: DIVMTQSPSSLTVTAGEKVTMNCKSSQSLLNAGNQKNYLTWYQQKPGQPPKLLFYWASTRESGVPDRFTGSGSGTDFTLTISSVQAEDLAVYHCQNAYYYPYTFGGGTKLEMK
notes: also called chimeric antibody of 299B2-S32A
As to B11, in assay [6], the EC50 is 1.31 µg/mL and the “Mean maximum fluorescence intensity (Top MFI)” value is 6500 MFI.

B12: ch-299B2-G33A (antibody, V domains shown)
VH: QVQLKQSGPELVRPGASVKLSCKTSGYIFTNYWIHWVKQRSGQGLEWVVRIYPGTGNTYYNEKFTGKATLTADKSSSTAYMQLSSLKYEDSAVYFCSREGYGKGNSMDYWGQGTSVTVSS
VL: DIVMTQSPSSLTVTAGEKVTMNCKSSQSLLNSANQKNYLTWYQQKPGQPPKLLFYWASTRESGVPDRFTGSGSGTDFTLTISSVQAEDLAVYHCQNAYYYPYTFGGGTKLEMK
notes: also called chimeric antibody of 299B2-G33A
On to B12, for which, in assay [6], the midpoint of the response, the EC50, lay at 0.157 µg/mL and the “Mean maximum fluorescence intensity (Top MFI)” value is 6870 MFI.
